Laboratory results published in PMC11268888.

Columns and labels:
Assay in all cases: SPR; […]; HBS-EP (10 mM HEPES pH 7.4, 150 mM NaCl, 3 mM EDTA, 0.005% Surfactant P20); […]
[1] = molecular target: MeV-H (measles virus hemagglutinin), vaccine strain (measles virus)
[2] = molecular target: ectodomain (head domain) of CDV-H, 5VD wild-type strain (canine distemper virus (5VD wild-type strain))
[3] = molecular target: soluble head domain of CDV-H (canine distemper virus hemagglutinin), Kyoto Biken vaccine strain, made in HEK293T cells (canine distemper virus (Kyoto Biken vaccine strain))

ectodomain of human Nectin-4 (residues 1-333), sequence (Q96NY8 32-333): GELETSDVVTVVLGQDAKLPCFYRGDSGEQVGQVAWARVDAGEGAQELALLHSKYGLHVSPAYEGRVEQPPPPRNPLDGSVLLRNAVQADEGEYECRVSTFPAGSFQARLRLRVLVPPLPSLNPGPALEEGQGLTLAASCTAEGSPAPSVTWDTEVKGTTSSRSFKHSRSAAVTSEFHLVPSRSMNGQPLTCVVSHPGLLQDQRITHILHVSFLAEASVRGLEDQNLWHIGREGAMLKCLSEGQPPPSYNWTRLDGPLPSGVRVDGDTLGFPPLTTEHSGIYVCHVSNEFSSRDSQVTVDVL

ectodomain of human Nectin-4 (residues 1-333) (from UniProt Q96NY8 32-333) (receptor)
Ka [1]: 1.5e+06 M⁻¹
Kd [1]: 666 nM
Ka [2]: 397000 M⁻¹
Kd [2]: 948 nM
Ka [3]: 1.05e+06 M⁻¹
Kd [3]: 2520 nM

ectodomain of dog Nectin-4 (residues 1-332) (receptor)
Ka [1]: 950000 M⁻¹
Kd [1]: 1050 nM
Ka [2]: 396000 M⁻¹
Kd [2]: 2530 nM
Ka [3]: 1.06e+06 M⁻¹
Kd [3]: 942 nM
